This test concerns the target recombinant human BCMA protein conjugated to IgG1 Fc-PE (human) (UniProt Q02223). The test is described as follows: flow cytometry, CAR T cells stained with BCMA-IgG1 Fc-PE. Background: In flow cytometry, cells or beads pass a laser one at a time.

Experimental findings from patent US20170226216A1 are described below.

Sequence of UniProt Q02223 (Q02223 1-54 limits assumed): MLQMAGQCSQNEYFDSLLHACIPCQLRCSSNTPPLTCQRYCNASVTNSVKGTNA

B1: humanized anti-BCMA-10.2 CAR (protein)
chain: DIVLTQSPASLAVSLGERATINCRASESVSVIGAHLIHWYQQKPGQPPKLLIYLASNLETGVPARFSGSGSGTDFTLTISSLQAEDAAIYYCLQSRIFPRTFGQGTKLEIKGSTSGSGKPGSGEGSTKGQVQLVQSGSELKKPGASVKVSCKASGYTFTDYSINWVRQAPGQGLEWMGWINTETREPAYAYDFRGRFVFSLDTSVSTAYLQISSLKAEDTAVYYCARDYSYAMDYWGQGTLVTVSSAAADTGLYICKVELMYPPPYYLGIGNGTQIYVIDPEPCPDSDFLLWILAAVSSGLFFYSFLLTAVSKRGRKKLLYIFKQPFMRPVQTTQEEDGCSCRFPEEEEGGCELRVKFSRSADAPAYQQGQNQLYNELNLGRREEYDVLDKRRGRDPEMGGKPRRKNPQEGLYNELQKDKMAEAYSEIGMKGERRRGKGHDGLYQGLSTATKDTYDALHMQALPPR
In the case of B1, the T cells stained with BCMA-IgG1 Fc-PE (CAR surface expression), Donor 1 came to 86.2.
